System: EV71 structural polyprotein P1 (Wt HK08), unprocessed (98 kDa)

Substance: EV71 protease 3CD (Wt GDFS08)
- proteolytic processing of P1 in planta, anti-VP1 western blot (vectors 1300+1315): the 98 kDa signal completely disappears and a new product is detected that corresponds in molecular weight to VP1 (33.5 kDa)

Substance: EV71 protease 3CD (Wt HK08)
- proteolytic processing of P1 in planta, anti-VP1 western blot (vectors 1300+1310): the 98 kDa signal completely disappears and a new product is detected that corresponds in molecular weight to VP1 (33.5 kDa)
